B1: GpH7-B3 variant K326_14T/GpL16-k0 (antibody, human IgG1, kappa)
heavy: not shown
light: DIVMTQSPLSLPVTPGEPASISCQASESLVHSNRNTYLHWYLQKPGQSPQLLIYKVSNRFSGVPDRFSGSGSGTDFTLKISRVEAEDVGVYYCSQNTHVPPTFGQGTKVEIERTVAAPSVFIFPPSDEQLKSGTASVVCLLNNFYPREAKVQWKVDNALQSGNSQESVTEQDSKDSTYSLSSTLTLSKADYEKHKVYACEVTHQGLSSPVTKSFNRGEC
notes: homodimerized; also called Ho Ab K326_14T
B2: GpH7-B3 variant P238_04F/GpL16-k0 (antibody, human IgG1, kappa)
heavy: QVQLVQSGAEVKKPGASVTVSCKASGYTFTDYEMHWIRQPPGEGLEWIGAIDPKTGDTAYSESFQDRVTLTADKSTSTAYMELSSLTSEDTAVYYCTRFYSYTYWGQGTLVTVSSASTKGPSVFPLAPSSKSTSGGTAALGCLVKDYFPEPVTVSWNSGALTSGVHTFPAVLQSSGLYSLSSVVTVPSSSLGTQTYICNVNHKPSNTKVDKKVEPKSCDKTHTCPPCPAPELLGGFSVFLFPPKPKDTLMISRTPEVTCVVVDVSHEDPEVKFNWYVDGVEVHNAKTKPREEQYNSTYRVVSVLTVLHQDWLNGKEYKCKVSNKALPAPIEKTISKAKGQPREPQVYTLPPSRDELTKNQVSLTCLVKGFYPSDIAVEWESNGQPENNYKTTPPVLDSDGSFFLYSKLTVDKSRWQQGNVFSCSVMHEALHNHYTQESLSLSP
light: B1 light
notes: homodimerized; also called Ho Ab P238_04F
B3: GpH7-B3 variant L328_19Q/GpL16-k0 (antibody, human IgG1, kappa)
heavy: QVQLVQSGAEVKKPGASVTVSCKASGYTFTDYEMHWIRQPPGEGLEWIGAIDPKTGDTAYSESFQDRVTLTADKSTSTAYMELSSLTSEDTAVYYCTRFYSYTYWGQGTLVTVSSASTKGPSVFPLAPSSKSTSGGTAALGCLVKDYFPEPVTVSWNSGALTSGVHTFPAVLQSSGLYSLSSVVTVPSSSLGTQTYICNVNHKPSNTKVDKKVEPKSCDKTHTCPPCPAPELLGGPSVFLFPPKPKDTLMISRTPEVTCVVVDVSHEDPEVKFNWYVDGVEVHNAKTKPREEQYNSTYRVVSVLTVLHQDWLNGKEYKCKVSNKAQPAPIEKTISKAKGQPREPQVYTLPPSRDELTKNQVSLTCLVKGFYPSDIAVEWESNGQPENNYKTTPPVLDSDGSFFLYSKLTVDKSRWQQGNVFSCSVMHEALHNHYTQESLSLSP
light: B1 light
notes: homodimerized; also called Ho Ab L328_19Q
B4: GpH7-B3 variant L234_03V/GpL16-k0 (antibody, human IgG1, kappa)
heavy: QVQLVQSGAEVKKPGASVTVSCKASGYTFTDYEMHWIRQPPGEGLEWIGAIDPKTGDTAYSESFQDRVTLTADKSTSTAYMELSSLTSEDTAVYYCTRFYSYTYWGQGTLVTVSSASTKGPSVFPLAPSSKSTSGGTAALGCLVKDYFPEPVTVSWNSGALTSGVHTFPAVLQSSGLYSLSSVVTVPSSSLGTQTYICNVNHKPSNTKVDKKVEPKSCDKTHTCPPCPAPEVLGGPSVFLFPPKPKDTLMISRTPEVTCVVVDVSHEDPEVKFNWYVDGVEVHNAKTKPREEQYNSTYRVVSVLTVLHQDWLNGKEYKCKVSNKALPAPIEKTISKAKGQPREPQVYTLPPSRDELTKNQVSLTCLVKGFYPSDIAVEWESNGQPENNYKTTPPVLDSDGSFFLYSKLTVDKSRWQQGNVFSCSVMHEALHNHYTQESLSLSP
light: B1 light
notes: homodimerized; also called Ho Ab L234_03V
B5: GpH7-B3 variant L234_15Y/GpL16-k0 (antibody, human IgG1, kappa)
heavy: not shown
light: B1 light
notes: homodimerized; also called Ho Ab L234_15Y; GpH7-B3-01-15Y/GpL16-k0
B6: GpH7-B3 variant P271_13S/GpL16-k0 (antibody, human IgG1, kappa)
heavy: not shown
light: B1 light
notes: homodimerized; also called Ho Ab P271_13S
B7: GpH7-B3 variant K334_10E/GpL16-k0 (antibody, human IgG1, kappa)
heavy: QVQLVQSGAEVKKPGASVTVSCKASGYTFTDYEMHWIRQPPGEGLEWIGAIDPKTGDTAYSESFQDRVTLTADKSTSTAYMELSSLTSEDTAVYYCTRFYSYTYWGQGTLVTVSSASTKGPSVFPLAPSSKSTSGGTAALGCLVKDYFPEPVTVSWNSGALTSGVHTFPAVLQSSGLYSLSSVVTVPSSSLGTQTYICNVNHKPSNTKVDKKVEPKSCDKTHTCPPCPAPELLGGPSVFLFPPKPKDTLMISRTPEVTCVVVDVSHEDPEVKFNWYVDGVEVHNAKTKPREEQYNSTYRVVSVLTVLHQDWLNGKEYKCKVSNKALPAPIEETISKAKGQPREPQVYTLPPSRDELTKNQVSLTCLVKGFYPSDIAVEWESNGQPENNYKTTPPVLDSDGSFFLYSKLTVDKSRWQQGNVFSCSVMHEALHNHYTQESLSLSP
light: B1 light
notes: homodimerized; also called Ho Ab K334_10E
B8: GpH7-B3 variant P271_12R/GpL16-k0 (antibody, human IgG1, kappa)
heavy: not shown
light: B1 light
notes: homodimerized; also called Ho Ab P271_12R
B9: GpH7-B3 variant P238_08L/GpL16-k0 (antibody, human IgG1, kappa)
heavy: not shown
light: B1 light
notes: homodimerized; also called Ho Ab P238_08L
B10: GpH7-B3 variant K326_18N/GpL16-k0 (antibody, human IgG1, kappa)
heavy: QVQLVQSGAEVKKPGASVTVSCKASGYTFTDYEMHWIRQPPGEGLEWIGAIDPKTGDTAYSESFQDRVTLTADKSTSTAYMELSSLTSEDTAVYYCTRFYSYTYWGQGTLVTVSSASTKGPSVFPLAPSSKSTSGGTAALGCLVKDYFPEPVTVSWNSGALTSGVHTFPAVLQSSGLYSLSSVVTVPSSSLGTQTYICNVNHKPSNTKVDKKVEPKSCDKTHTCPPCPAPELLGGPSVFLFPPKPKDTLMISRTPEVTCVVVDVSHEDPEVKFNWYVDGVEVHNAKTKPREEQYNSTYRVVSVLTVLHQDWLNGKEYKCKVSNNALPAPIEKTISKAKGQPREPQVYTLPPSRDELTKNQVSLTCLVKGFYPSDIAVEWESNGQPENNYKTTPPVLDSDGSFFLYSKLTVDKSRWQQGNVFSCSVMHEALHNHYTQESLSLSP
light: B1 light
notes: homodimerized; also called Ho Ab K326_18N
B11: GpH7-B3 variant L234_07I/GpL16-k0 (antibody, human IgG1, kappa)
heavy: not shown
light: B1 light
notes: homodimerized; also called Ho Ab L234_07I
B12: GpH7-B3 variant P271_20W/GpL16-k0 (antibody, human IgG1, kappa)
heavy: not shown
light: B1 light
notes: homodimerized; also called Ho Ab P271_20W
B13: GpH7-B3 variant L328_10E/GpL16-k0 (antibody, human IgG1, kappa)
heavy: not shown
light: B1 light
notes: homodimerized; also called Ho Ab L328_10E
B14: GpH7-B3 variant P271_06M/GpL16-k0 (antibody, human IgG1, kappa)
heavy: not shown
light: B1 light
notes: homodimerized; also called Ho Ab P271_06M
B15: GpH7-B3 variant K326_16H/GpL16-k0 (antibody, human IgG1, kappa)
heavy: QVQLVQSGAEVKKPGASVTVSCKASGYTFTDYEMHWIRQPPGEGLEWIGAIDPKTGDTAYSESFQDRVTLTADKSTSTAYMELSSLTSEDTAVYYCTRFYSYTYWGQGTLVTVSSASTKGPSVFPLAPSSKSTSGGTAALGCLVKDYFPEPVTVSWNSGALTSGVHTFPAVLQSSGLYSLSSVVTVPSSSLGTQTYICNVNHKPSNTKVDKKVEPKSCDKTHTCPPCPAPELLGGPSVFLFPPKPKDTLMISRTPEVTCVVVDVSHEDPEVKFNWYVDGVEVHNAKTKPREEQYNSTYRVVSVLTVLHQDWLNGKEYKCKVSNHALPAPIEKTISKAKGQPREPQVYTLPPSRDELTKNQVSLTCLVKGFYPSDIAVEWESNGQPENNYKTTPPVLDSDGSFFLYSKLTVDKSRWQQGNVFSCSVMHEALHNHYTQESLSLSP
light: B1 light
notes: homodimerized; also called Ho Ab K326_16H
B16: GpH7-B3 variant L234_06M/GpL16-k0 (antibody, human IgG1, kappa)
heavy: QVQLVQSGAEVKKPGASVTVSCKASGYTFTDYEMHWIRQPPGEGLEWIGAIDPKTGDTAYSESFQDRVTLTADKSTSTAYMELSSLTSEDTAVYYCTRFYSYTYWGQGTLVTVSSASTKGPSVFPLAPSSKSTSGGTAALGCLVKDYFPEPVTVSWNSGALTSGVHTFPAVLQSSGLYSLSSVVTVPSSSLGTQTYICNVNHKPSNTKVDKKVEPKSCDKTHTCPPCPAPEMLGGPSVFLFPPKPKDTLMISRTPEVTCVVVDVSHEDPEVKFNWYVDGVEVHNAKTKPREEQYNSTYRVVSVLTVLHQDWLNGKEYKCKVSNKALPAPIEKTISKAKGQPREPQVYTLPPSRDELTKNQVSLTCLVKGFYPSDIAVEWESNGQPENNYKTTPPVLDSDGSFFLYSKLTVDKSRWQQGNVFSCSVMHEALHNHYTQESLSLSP
light: B1 light
notes: homodimerized; also called Ho Ab L234_06M
B17: GpH7-B3 variant K334_06M/GpL16-k0 (antibody, human IgG1, kappa)
heavy: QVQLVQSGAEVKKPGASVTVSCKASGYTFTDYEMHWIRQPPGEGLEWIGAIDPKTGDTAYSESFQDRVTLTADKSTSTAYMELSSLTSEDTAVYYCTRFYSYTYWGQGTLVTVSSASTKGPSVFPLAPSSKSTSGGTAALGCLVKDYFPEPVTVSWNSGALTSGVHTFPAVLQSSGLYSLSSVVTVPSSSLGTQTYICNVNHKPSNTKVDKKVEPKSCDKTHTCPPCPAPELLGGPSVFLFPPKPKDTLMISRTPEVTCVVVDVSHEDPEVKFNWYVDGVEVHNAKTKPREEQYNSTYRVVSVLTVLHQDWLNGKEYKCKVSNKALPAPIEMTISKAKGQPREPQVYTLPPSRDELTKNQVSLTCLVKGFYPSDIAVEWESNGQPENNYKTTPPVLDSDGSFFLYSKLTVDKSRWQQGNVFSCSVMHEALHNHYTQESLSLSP
light: B1 light
notes: homodimerized; also called Ho Ab K334_06M
B18: GpH7-B3 variant L328_03V/GpL16-k0 (antibody, human IgG1, kappa)
heavy: not shown
light: B1 light
notes: homodimerized; also called Ho Ab L328_03V
B19: GpH7-B3 variant P271_03V/GpL16-k0 (antibody, human IgG1, kappa)
heavy: not shown
light: B1 light
notes: homodimerized; also called Ho Ab P271_03V
B20: GpH7-B3 variant P238_06M/GpL16-k0 (antibody, human IgG1, kappa)
heavy: not shown
light: B1 light
notes: homodimerized; also called Ho Ab P238_06M
B21: GpH7-B3 variant P238_10E/GpL16-k0 (antibody, human IgG1, kappa)
heavy: not shown
light: B1 light
notes: homodimerized; also called Ho Ab P238_10E
B22: GpH7-B3 variant L234_04F/GpL16-k0 (antibody, human IgG1, kappa)
heavy: not shown
light: B1 light
notes: homodimerized; also called Ho Ab L234_04F
B23: GpH7-B3 variant K334_20W/GpL16-k0 (antibody, human IgG1, kappa)
heavy: not shown
light: B1 light
notes: homodimerized; also called Ho Ab K334_20W
B24: GpH7-B3 variant L234_10E/GpL16-k0 (antibody, human IgG1, kappa)
heavy: not shown
light: B1 light
notes: homodimerized; also called Ho Ab L234_10E; GpH7-B16/GpL16-k0
B25: GpH7-B3 variant P238_03V/GpL16-k0 (antibody, human IgG1, kappa)
heavy: not shown
light: B1 light
notes: homodimerized; also called Ho Ab P238_03V
B26: GpH7-B3 variant L328_20W/GpL16-k0 (antibody, human IgG1, kappa)
heavy: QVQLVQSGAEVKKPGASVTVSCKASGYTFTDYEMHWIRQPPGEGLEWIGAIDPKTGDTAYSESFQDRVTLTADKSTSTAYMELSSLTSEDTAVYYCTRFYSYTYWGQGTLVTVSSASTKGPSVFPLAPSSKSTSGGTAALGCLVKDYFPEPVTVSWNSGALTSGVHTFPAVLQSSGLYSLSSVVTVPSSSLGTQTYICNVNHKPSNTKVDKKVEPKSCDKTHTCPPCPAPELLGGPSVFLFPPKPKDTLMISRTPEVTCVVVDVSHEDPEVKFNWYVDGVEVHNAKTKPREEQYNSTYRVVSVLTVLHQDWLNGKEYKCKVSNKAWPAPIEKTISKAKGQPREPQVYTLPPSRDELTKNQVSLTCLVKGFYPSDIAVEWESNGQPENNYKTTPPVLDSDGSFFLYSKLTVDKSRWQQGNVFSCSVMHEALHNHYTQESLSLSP
light: B1 light
notes: homodimerized; also called Ho Ab L328_20W
B27: GpH7-B3 variant Q295_02A/GpL16-k0 (antibody, human IgG1, kappa)
heavy: not shown
light: B1 light
notes: homodimerized; also called Ho Ab Q295_02A
B28: GpH7-B3 variant K326_15Y/GpL16-k0 (antibody, human IgG1, kappa)
heavy: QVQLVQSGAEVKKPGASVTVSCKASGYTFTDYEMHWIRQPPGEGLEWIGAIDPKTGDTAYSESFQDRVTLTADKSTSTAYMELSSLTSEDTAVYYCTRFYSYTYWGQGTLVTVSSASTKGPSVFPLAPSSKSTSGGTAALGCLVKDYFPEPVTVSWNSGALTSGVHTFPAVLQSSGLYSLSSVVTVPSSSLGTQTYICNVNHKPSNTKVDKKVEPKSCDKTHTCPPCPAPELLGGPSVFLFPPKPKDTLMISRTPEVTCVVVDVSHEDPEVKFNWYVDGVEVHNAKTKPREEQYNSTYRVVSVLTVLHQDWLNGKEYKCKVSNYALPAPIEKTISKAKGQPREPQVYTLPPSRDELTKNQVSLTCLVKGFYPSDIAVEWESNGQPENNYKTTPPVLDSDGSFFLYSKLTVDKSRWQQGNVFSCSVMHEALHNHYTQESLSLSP
light: B1 light
notes: homodimerized; also called Ho Ab K326_15Y
B29: GpH7-B3 variant L328_14T/GpL16-k0 (antibody, human IgG1, kappa)
heavy: not shown
light: B1 light
notes: homodimerized; also called Ho Ab L328_14T
B30: GpH7-B3 variant P271_11K/GpL16-k0 (antibody, human IgG1, kappa)
heavy: not shown
light: B1 light
notes: homodimerized; also called Ho Ab P271_11K

The binders below were run against T1, FcγRIa (human, UniProt P12314 16-292) (assay: SPR; vs GpH7-B3/GpL16-k0=100).
T1 construct: extracellular domain; also called FcgRI; CD64
T1 sequence (P12314 16-292): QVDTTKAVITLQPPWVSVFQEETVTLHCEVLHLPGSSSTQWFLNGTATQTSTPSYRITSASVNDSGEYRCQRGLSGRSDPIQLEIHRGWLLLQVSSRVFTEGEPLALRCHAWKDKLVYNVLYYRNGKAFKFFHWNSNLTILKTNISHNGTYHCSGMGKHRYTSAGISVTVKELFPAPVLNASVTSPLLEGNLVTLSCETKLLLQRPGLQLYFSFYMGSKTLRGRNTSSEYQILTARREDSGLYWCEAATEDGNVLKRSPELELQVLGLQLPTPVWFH

| Ho/Con_1a | Binder |
| --- | --- |
| 103 % of control | B1 |
| 98.7 % of control | B2 |
| 99.3 % of control | B3 |
| 98.2 % of control | B4 |
| 98.9 % of control | B5 |
| 101 % of control | B6 |
| 107 % of control | B7 |
| 101 % of control | B8 |
| 100 % of control | B9 |
| 102 % of control | B10 |
| 99.5 % of control | B11 |
| 102 % of control | B12 |
| 101 % of control | B13 |
| 102 % of control | B14 |
| 101 % of control | B15 |
| 96.5 % of control | B16 |
| 104 % of control | B17 |
| 99.2 % of control | B18 |
| 102 % of control | B19 |
| 100 % of control | B20 |
| 91.8 % of control | B21 |
| 93.5 % of control | B22 |
| 104 % of control | B23 |
| 79.6 % of control | B24 |
| 97.9 % of control | B25 |
| 99.9 % of control | B26 |
| 104 % of control | B27 |
| 101 % of control | B28 |
| 98.6 % of control | B29 |
| 101 % of control | B30 |

Reference: US20180155451A1 (published 2018)
